This sample holds only a part of the variants without activity.
B1: TPR 5TU (parent)
chain: GGAUCUUCUCGAUCUAACAAAAAAGACAAAUCUGCCACAAAGCUUGAGAGCAUCUUCGGAUGCAGAGGCGGCAGCCUUCGGUGGCGCGAUAGCGCCAACGUUCUCAACUAUGACACGCAAAACGCGUGCUCCGUUGAAUGGAGUUUAUCAUG

Variants of: B1
Assay: polymerase ribozyme fitness, log enrichment relative to wild type (log ratio); higher = more active; in vitro selection for triplet polymerase activity
In short: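 Fitness compares each genotype's enrichment to that of the wild type on a logarithmic scale, averaging replicates with inverse-variance weights. The logarithm is base 2. Enrichment came from Illumina sequencing of input and output libraries after one triplicate round of in vitro selection, which included frozen incubation at −7 °C, of PCR-built, transcribed mutant libraries of each subunit of a heterodimeric triplet polymerase ribozyme. Only genotypes with ≥10 input reads and ≥1 read per output were kept.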

Variant	polymerase ribozyme fitness (log ratio)
GGAUCUUCUCGAUCUAACAAAAAAGACAAAUCUGCCACAAAGCUUGAGAGCAUCUUCGGAUGCAGAGGCGGCAGCCUUCGGUGGGGCGAUAGCGCUAACGUUCUCAACUAUGUCACGCAAAACGCGUGCUCCGUUGAAUGGAGUUUAUCAUG	-3.8
GGAUCUUCUCGAUCUAACAAAAAAGACAAAUCUGCCACAAAGCUUGAGAGCAUCUUCGGAUGCAGAGGCGGCAGCCUUCGGUGGGGCGAUAGCGCCAACGUUCUCAACUAUGACACGCGAAACGCGUGCUCCGUUGAAUGGAGUUUAUCAUG	-1.7
GGAUCUUCUCGAUCUAACAAAAAAGACAAAUCUGCCACAAAGCUUGAGAGCAUCUUCGGAUGCAGAGGCGGCAGCCUUCGGUGGGGCGAUAGCGCCAACGUUCUCAACUAUGACACGCCAAACGCGUGCUCCGUUGAAUGGAGUUUAUCAUG	-2.45
GGAUCUUCUCGAUCUAACAAAAAAGACAAAUCUGCCACAAAGCUUGAGAGCAUCUUCGGAUGCAGAGGCGGCAGCCUUCGGUGGAGCGAUAGCGCCAACGUUCUCAACUAUGACACGCAAAACGCGUGCUCCGUUGAAGGGAGUUUAUCAUG	-1.11
GGAUCUUCUCGAUCUAACAAAAAAGACAAAUCUGCCACAAAGCUUGAGAGCAUCUUCGGAUGCAGAGGCGGCAGCCUUCGGUGGGGCGAUAGCGCCAACGUUCUCAACUAUGACUCGCAAGACGCGUGCUCCGUUGAAUGGGGGUUAUCAUG	≤ -4.2
GGAUCUUCUCGAUCUAACAAAAAAGACAAAUCUGCCACAAAGCUUGAGAGCAUCUUCGGAUGCAGAGGCGGCAGCCUUCGGUGGAGCGAUAGCGCCAACGUUCUCAACUAUGACACGCAAAACGCGUGCACCGUUGAAUGGAGUUUAUCAUG	-2.45
GGAUCUUCUCGAUCUAACAAAAAAGACAAAUCUGCCACAAAGCUUGAGAGCAUCUUCGGAUGCAGAGGCGGCAGCCUUCGGUGGGGCGAUAGAGCCAACGUUCUCAACUAUGACACGCAAAACGCGUGCUCCGUUGAAUGGAGUUUAUCAUG	≤ -4.2
GGAUCUUCUCGAUCUAACAAAAAAGACAAAUCUGCCACAAAGCUUGAGAGCAUCUUCGGAUGCAGAGGCGGCAGCCUUCGGUGGGGCGAUAGCGCCAACGUUCUCAACUAUGAAACGCAAAACGCGUGCUCCGUUGAAUGGAGUUUAUCCUG	≤ -4.2
GGAUCUUCUCGAUCUAACAAAAAAGACAAAUCUGCCACAAAGCUUGAGAGCAUCUUCGGAUGCAGAGGCGGCAGCCUUCGGUGGGGGGAUAGCGCCAUCGUUCUCAACUAUGACACGCAAAACGCGUGCUCCGUUGGAUGGAGCUUAUCAUG	≤ -4.2
GGAUCUUCUCGAUCUAACAAAAAAGACAAAUCUGCCACAAAGCUUGAGAGCAUCUUCGGAUGCAGAGGCGGCAGCCUUCGGUGGGGCGAUAGCGCCAACGUUCUCAACUAUGACACGCAAAUCGCGUGCUCCGUUGAAUGGAGUUUAUCAUG	-1.53
GGAUCUUCUCGAUCUAACAAAAAAGACAAAUCUGCCACAAAGCUUGAGAGCAUCUUCGGAUGCAGAGGCGGCAGCCUUCGGUGGGGCGAUAGCGCCAACGUUCUCAACUAUGACACGCAAAGCGCGUGCUCCGUUGAAUGGAGUUUAUAAUG	≤ -4.2
GGAUCUUCUCGAUCUAACAAAAAAGACAAAUCUGCCACAAAGCUUGAGAGCAUCUUCGGAUGCAGAGGCGGCAGCCUUCGGUGGAGCGAUAGCGCCAACGUGCUCAACUAUGACACGCAAGCCGCGUGCUCCGUUGAAUGGAGUUUAUCAUG	≤ -4.2
GGAUCUUCUCGAUCUAACAAAAAAGACAAAUCUGCCACAAAGCUUGAGAGCAUCUUCGGAUGCAGAGGCGGCAGCCUUCGGUGGGGCGAUAGCGCCAACGUUCUCAUCUAUGACACGCAAAACGCGUGCUCCGUUGAAUGGAGUUUAUCAUG	≤ -4.2
GGAUCUUCUCGAUCUAACAAAAAAGACAAAUCUGCCACAAAGCUUGAGAGCAUCUUCGGAUGCAGAGGCGGCAGCCUUCGGUGGAGCGAUAGCGCCAACGUUCUCAACUAUGACACGCAAAACGCGUGCUCCGUUGAAUGGACUUUAUCAUG	-3.01
GGAUCUUCUCGAUCUAACAAAAAAGACAAAUCUGCCACAAAGCUUGAGAGCAUCUUCGGAUGCAGAGGCGGCAGCCUUCGGUGGAGCGAUAGCGCCAACGUUCUCAACUAUGACACGCAAAACGCGUGCUCCGUUGAAUGGAUUUUAUCAUG	-2.37
GGAUCUUCUCGAUCUAACAAAAAAGACAAAUCUGCCACAAAGCUUGAGAGCAUCUUCGGAUGCAGAGGCGGCAGCCUUCGGUGGAGCGAUAGCGCCAACGUUCUCAACUAUGACACGCAAAACGCGUGCUCCGUUGAAUGGAGUUUAUCAUC	-2.88
GGAUCUUCUCGAUCUAACAAAAAAGACAAAUCUGCCACAAAGCUUGAGAGCAUCUUCGGAUGCAGAGGCGGCAGCCUUCGGUGGAGCGAUAGCGCCAACGUUCUCAACUAUGACACGCAAAACGCGUGCUCCGUUGAAUGGAGUUUAUCAUA	-3.87
GGAUCUUCUCGAUCUAACAAAAAAGACAAAUCUGCCACAAAGCUUGAGAGCAUCUUCGGAUGCAGAGGCGGCAGCCUUCGGUGGGGCGAUAGCGCCAACGUUCUCCACUAUGACACGCAAAACGCGUGCUCCGUUGAAUGUAUUUUAUCAAG	≤ -4.2
GGAUCUUCUCGAUCUAACAAAAAAGACAAAUCUGCCACAAAGCUUGAGAGCAUCUUCGGAUGCAGAGGCGGCAGCCUUCGGUGGGGCGAUAGCGCCAACGUUCUCAACUAUGAGACGCAAAACGCGUGCUCCGUUGAAUGGAGUUUAUCAUG	-3.8

— the RNAGym collection of RNA variant scans (doi:10.1073/pnas.2313332121)
